Test results published in patent US11708423B2, “Chimeric engulfment receptor molecules and methods of use” (CERO THERAPEUTICS, INC., priority 2017, dated 2023).
Entries after “also recorded” stand apart in the source; their conditions may differ.

Assays:
[1] = test system: HCC159 lung adenocarcinoma cells; assay: LDH-based cytotoxicity, HCC159 cells; format: cell-based; conditions: Osimeritinib 0, 1, 5 nM; E:T 2:1 or 5:1; 18 hours
Experimental: HCC159 lung adenocarcinoma cells were co-cultured with CER123- or CER126-expressing CD4+ T cells with increasing concentrations of Osimeritnib (0, 1 nM, 5 nM). After 18 hours of co-culture, bulk supernatants were evaluated using a LDH-based cytotoxicity assay. T cells assays were performed using purified, EGFR^+ (transduction marker), CER modified T cells 7 days after activation using CD3 & CD28 microbeads at effector:target cell ratios of 2:1 or 5:1. Control “Mock” T cells were transduced with vector alone. […] Bulk supernatants were also analyzed after 18 hours of co-culture for Interferon Gamma (IFNγ) secretion (FIG. 50). Control “Mock” T cells were transduced with vector alone.

[2] = test system: H1975 NSCLC cells; assay: LDH-based cytotoxicity, H1975 cells, 18 hours co-culture; format: cell-based; conditions: Osimeritinib 0, 500, 1000 nM, E:T 2:1 or 5:1
Experimental: H1975 NSCLC cells were co-cultured with CER123- or CER126-expressing CD4+ T cells with increasing concentrations of Osimeritnib (0, 500 nM, or 1000 nM). Mock-transduced (vector only) T cells were used as control. Assays were performed using CER modified T cells purified by FACS using an EGFR specific antibody 7 days after activation using CD3 & CD28 microbeads. CER modified T cells and H1975 cells were co-cultured at effector:target cell ratios of 2:1 or 5:1. After 18 hours of co-culture, bulk supernatants were evaluated using LDH-based cytotoxicity assay.

[3] = test system: HCC159 lung adenocarcinoma cells; assay: MTT viability of HCC159 cells co-cultured with CER T cells and Osimeritinib; format: cell-based
Experimental: HCC159 lung adenocarcinoma cells harboring an EGFR mutation were co-cultured with CER123- or CER126-expressing CD4+ T cells with increasing concentrations of Osimeritinib (0.1 nM, 1 nM, or 5 nM). Mock transduced (vector only) T cells were used as control. After 48 hours of co-culture at effector: target cell ratios at 1:1, 2:1 or 5:1 in the presence of drug, T cells were washed away, and the number of viable HCC159 cells was quantified using a calorimetric MTT assay. Cell viability experiments were performed in triplicates and presented as % of control with (FIG. 48A).

[4] = test system: A549 cells introduced with an ELM4-ALK translocation; assay: Interferon Gamma secretion, A549 ALK+ co-culture; format: cell-based; conditions: Crizotinib (3700 nM) or Alectinib (3700 nM), 18 hours, E:T 2:1 and 5:1
Experimental: After 18 hours of co-culture, bulk supernatants were evaluated for Interferon Gamma secretion (FIGS. 66A-B). Assays were performed using purified, tEGFR^+ (transduction marker), CER-expressing T cells 7 days after activation using CD3 & CD28 microbeads at effector: target ratios of (2:1 & 5:1). Control “Mock” T cells were transduced with vector alone.

[5] = test system: ALK+A549 cells; assay: LDH cytotoxicity assay, A549 ALK+ cells, 18 hours co-culture; format: cell-based; conditions: Crizotinib or Alectinib 0, 2500, 3700 nM; E:T 2:1 or 5:1; 18 hours
Experimental: An ELM4-ALK translocation was introduced into A549 cells. […] Assays were performed with purified tEGFR^+ (transduction marker), CER-expressing T cells 7 days after activation using CD3 & CD28 microbeads at effector: target cell ratios of 2:1 or 5:1. Mock T cells were transduced with vector alone and used as control. After 18 hours of co-culture, bulk supernatants were evaluated using a LDH cytoxicity assay indicating cell killing (FIGS. 65A-B).

[6] = test system: staurosporine treated Jurkat cells; assay: Phagocytosis and cytolysis of staurosporine treated Jurkat cells by CER21+ human primary B cells; format: cell-based
Experimental: One day prior to setting up the phagocytosis assay, Jurkat human B lymphocytes were cultured in complete RPMI 1640 growth media supplemented with 10% fetal bovine serum and 1% penicillin-streptomycin in a 6 well plate and treated with 1 mM staurosporine for three hours to induce apoptosis. Jurkat cells were washed twice in lx PBS to remove excess staurosporine and then stained with pHrodo Red (1 ng/μ.1 in PBS) for 15 minutes at room temperature. The Jurkat cells were supplemented with growth media, washed once to remove excess pHrodo Red, and plated on flat bottom 96 well plates at approximately 250,000 cells/well in RPMI 1640 complete media.
Transduced CER21+ human primary B cells were washed once with 1×PBS and stained with 1 μM CELLTRACE Violet in PBS for 10 minutes at 37° C. The CER21+ human primary B cells were supplemented with growth media, washed once with 1×PBS to remove excess CELLTRACE Violet, and plated onto 96 well plate at approximately 50,000 cells/well in RPMI 1640 complete media. Human CER21+primary B cells and Jurkat cells were co-cultured at a target cell to effector cell ratio of 5:1 at 37° C. for 3 hours. After incubation, the co-culture plate was then centrifuged, and the media replaced with PBS supplemented with 2% fetal bovine serum, pH 9. Phagocytic events were quantified by fluorescent microscopy (KEYENCE BZ-X710 fluorescence microscope, 20X objective). […] Solid arrows show engulfment activity. Dashed arrows show cytolytic activity.
Apoptotic cells were quantified from fluorescent images using automated software, and the number of apoptotic cells per high power view (FIG. 20A) and total fluorescence emission per high power view (FIG. 20B) were calculated using pH indicator dye.

[7] = test system: SCC152 cells; assay: Magnitude breadth of phagocytosis by CER-transduced CD4+ T cells; format: cell-based, human; conditions: 8 hours co-culture with CD8/E7 TCR T cells and SCC152 cells
Experimental: Various CER-modified CD4+ T cells were also evaluated for breadth of response to determine whether a particular CER confers a broad phagocytic response of low magnitude (e.g., 10% engulfment in 90% of cells) or a less frequent but strong phagocytic response (e.g., 90% engulfment in 10% of cells) in the host cells. CD8+ T cells were transduced with HPV16 E7 specific TCR as described in Example 5. CD4+ T cells were transduced with lentiviral vectors comprising a CER21, CER27, CER104, CER116, or CER117 nucleic acid. Mock-transduced (vector alone) CD4+ T cell were used as control. CD4+/CER+ and CD8+/E7 TCR+ T cells were stained with CELLTRACE violet. […] HPV16 E7 TCR transduced CD8+ T cells and selected CER transduced CD4+ T cells were mixed at a 1:1 ratio and co-cultured with SCC152 cells at a 1:1 ratio for 8 hours. Phagocytosis of target SCC152 cells by CER-transduced CD4+ T cells was analyzed by fluorescence microscopy. […] The horizontal axis represents the % area of CER-transduced CD4+ T cells having engulfment or % area of […]. This measure was rarely above 40% across CER types tested. The vertical axis represents the proportion of CER-transduced CD4+ T cells that were phagocytic. For CER104, about 20% of CER104-transduced CD4+ T cells have more than 10% engulfment. For CER117-transduced CD4+ T cells, less than 10% have more than 10% engulfment.

[8] = human primary B cells, target:effector 5:1, 3 hours

B1: CER123: Tim4 binding and transmembrane domains, TLR2 primary and TRAF6 secondary signaling domains; SEQ ID NO:150 (protein)
chain: MSKGLLLLWLVTELWWLYLTPAASEDTIIGFLGQPVTLPCHYLSWSQSRNSMCWGKGSCPNSKCNAELLRTDGTRIISRKSTKYTLLGKVQFGEVSLTISNTNRGDSGVYCCRIEVPGWFNDVKKNVRLELRRATTTKKPTTTTRPTTTPYVTTTTPELLPTTVMTTSVLPTTTPPQTLATTAFSTAVTTCPSTTPGSFSQETTKGSAFTTESETLPASNHSQRSMMTISTDIAVLRPTGSNPGILPSTSQLTTQKTTLTTSESLQKTTKSHQINSRQTILIIACCVGFVLMVLLFLAFLHRFHGLWYMKMMWAWLQAKRKPRKAPSRNICYDAFVSYSERDAYWVENLMVQELENFNPPFKLCLHKRDFIPGKWIIDNIIDSIEKSHKTVFVLSENFVKSEWCKYELDFSHFRLFDENNDAAILILLEPIEKKAIPQRFCKLRKIMNTKTYLEWPMDEAQREGFWVNLRAAIKSMSLLNCENSCGSSQSESDCCVAMASSCSAVTKDDSVGGTASTGNLSSSFMEEIQGYDVEFDPPLESKYECPICLMALREAVQTPCGHRFCKACIIKSIRDAGHKCPVDNEILLENQLFPDNFAKREILSLMVKCPNEGCLHKMELRHLEDHQAHCEFALMDCPQCQRPFQKFHINIHILKDCPRRQVSCDNCAASMAFEDKEIHDQNCPLANVICEYCNTILIREQMPNHYDLDCPTAPIPCTFSTFGCHEKMQRNHLARHLQENTQSHMRMLA
modifications: CER123 protein
For B1, the “cell killing of HCC159 cells (LDH)” value [1] was “inducible cell killing responses”, the “cell killing of H1975 cells (LDH)” value [2] was “inducible cell killing responses” and the “bright field images of HCC159 co-culture” value ([3]; 1 nM Osimeritinib, vs control T cells) was “loss of HCC159 cells”. The “growth/viability of HCC159 cells (MTT)” value ([3]; Osimeritinib 0.1, 1, 5 nM, E:T 1:1, 2:1, 5:1, 48 hours) was “dose-dependent target cell killing responses; also recorded: synergistically suppressed”, the “Interferon Gamma secretion” value [4] was “dose-dependent inducible cytokine secretion” and the “cell killing of A549 ALK+ cells (LDH)” value [5] was “dose-dependent inducible cytokine secretion and cell killing responses”.

B2: CER21: Tim4 binding and transmembrane domains, TLR8 signaling domain; SEQ ID NO:88 (protein)
chain: MSKGLLLLWLVTELWWLYLTPAASEDTIIGFLGQPVTLPCHYLSWSQSRNSMCWGKGSCPNSKCNAELLRTDGTRIISRKSTKYTLLGKVQFGEVSLTISNTNRGDSGVYCCRIEVPGWFNDVKKNVRLELRRATTTKKPTTTTRPTTTPYVTTTTPELLPTTVMTTSVLPTTTPPQTLATTAFSTAVTTCPSTTPGSFSQETTKGSAFTTESETLPASNHSQRSMMTISTDIAVLRPTGSNPGILPSTSQLTTQKTTLTTSESLQKTTKSHQINSRQTILIIACCVGFVLMVLLFLAFLHHLFYWDVWFIYNVCLAKVKGYRSLSTSQTFYDAYISYDTKDASVTDWVINELRYHLEESRDKNVLLCLEERDWDPGLAIIDNLMQSINQSKKTVFVLTKKYAKSWNFKTAFYLALQRLMDENMDVIIFILLEPVLQHSQYLRLRQRICKSSILQWPDNPKAEGLFWQTLRNVVLTENDSRYNNMYVDSIKQY
modifications: CER21 chimeric engulfment receptor
For B2, the “in vitro cytolysis of engulfed Jurkat cells” value [6, 8] was “in vitro cytolysis of Jurkat cells”, the “in vitro phagocytosis of Jurkat cells” value [6, 8] was “in vitro phagocytosis” and the “killing of target cells (apoptotic cells and fluorescence per high power view)” value ([6]; staurosporine treated (subtherapeutic dose) Jurkat cells) was “enhanced killing of target cells”.

B3: CER104: Tim4 binding and transmembrane domains, TLR8 primary and DAP12 secondary signaling domains; SEQ ID NO:133 (protein)
chain: MSKGLLLLWLVTELWWLYLTPAASEDTIIGFLGQPVTLPCHYLSWSQSRNSMCWGKGSCPNSKCNAELLRTDGTRIISRKSTKYTLLGKVQFGEVSLTISNTNRGDSGVYCCRIEVPGWFNDVKKNVRLELRRATTTKKPTTTTRPTTTPYVTTTTPELLPTTVMTTSVLPTTTPPQTLATTAFSTAVTTCPSTTPGSFSQETTKGSAFTTESETLPASNHSQRSMMTISTDIAVLRPTGSNPGILPSTSQLTTQKTTLTTSESLQKTTKSHQINSRQTILIIACCVGFVLMVLLFLAFLHHLFYWDVWFIYNVCLAKVKGYRSLSTSQTFYDAYISYDTKDASVTDWVINELRYHLEESRDKNVLLCLEERDWDPGLAIIDNLMQSINQSKKTVFVLTKKYAKSWNFKTAFYLALQRLMDENMDVIIFILLEPVLQHSQYLRLRQRICKSSILQWPDNPKAEGLFWQTLRNVVLTENDSRYNNMYVDSIKQYYFLGRLVPRGRGAAEAATRKQRITETESPYQELQGQRSDVYSDLNTQRPYYK
modifications: CER104 protein
In the case of B3, the “proportion of CER-transduced CD4+ T cells that have more than 10% engulfment” value [7] is reported as “about 20%”.
